Laboratory results taken from patent publication US20190119348A1, “PARATHYROID HORMONE RECEPTOR 1 ANTAGONIST AND INVERSE AGONIST POLYPEPTIDES AND METHODS OF THEIR USE” (The General Hospital Corporation, priority 2016, published 2019).
Like-named read-outs stand apart in the source and are kept apart here. Where no end group is shown, it is not given here.

What was measured:
hPTHR1-H223R (human) [1] = biological target: hPTHR1-H223R (human) (UniProt Q03431); assay: cell-based or functional assay
[2] = biological target: T1, human parathyroid hormone receptor 1 (hPTHR1) (human), Q03431; assay: cell-based or functional assay
T1 chain: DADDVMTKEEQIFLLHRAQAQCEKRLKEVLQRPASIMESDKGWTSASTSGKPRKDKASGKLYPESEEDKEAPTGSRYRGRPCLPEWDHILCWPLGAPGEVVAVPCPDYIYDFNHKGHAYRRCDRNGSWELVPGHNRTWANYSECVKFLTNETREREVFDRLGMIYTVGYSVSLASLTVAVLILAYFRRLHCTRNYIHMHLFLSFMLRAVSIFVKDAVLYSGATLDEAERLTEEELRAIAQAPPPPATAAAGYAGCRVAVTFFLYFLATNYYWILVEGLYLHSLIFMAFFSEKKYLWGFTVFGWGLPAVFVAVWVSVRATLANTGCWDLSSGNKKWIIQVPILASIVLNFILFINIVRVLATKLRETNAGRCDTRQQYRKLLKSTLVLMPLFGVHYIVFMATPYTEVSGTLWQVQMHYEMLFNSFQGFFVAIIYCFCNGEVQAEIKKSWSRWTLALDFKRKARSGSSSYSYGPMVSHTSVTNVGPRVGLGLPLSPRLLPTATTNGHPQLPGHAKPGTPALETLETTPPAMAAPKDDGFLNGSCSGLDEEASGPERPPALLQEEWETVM

[3] = biological target: T1, human parathyroid hormone receptor 1 …; assay: radioligand competition on GP-2.3 cells (hPTHR1), tracer 125I-PTH(1-34), n=4
[4] = biological target: T1, human parathyroid hormone receptor 1 …; assay: radioligand competition on GP-2.3 cells (hPTHR1), tracer 125I-PTHrP(5-36), n=4
hPTHR1-H223R (human) [5] = biological target: hPTHR1-H223R (human) (UniProt Q03431); assay: cell-based or functional assay; remark: listed apart in the source

Question: For IQLMHQRWKWIQDARRRAWLHKLIAEIHTAEI (modifications not checked) [dW12, W23-LA-PTH(5-36)-1949], which Reduction of basal cAMP, % vehicle; After ligand washout; GHR-10 cells (hPTHR1-H223R (human) [1]) is on record?
Answer: 30 % vehicle

Question: What about the Reduction of basal cAMP, % vehicle; Ligand @ -6M; GHR-10 cells (hPTHR1-H223R (human) [1]) of the same binder?
Answer: 41 % vehicle

Question: What about the IC50 (nanomolar value of the pIC50), antagonism of PTH(1-34)-induced cAMP response, GP-2.3 cells [2] of the same binder?
Answer: 101 nM

Question: And the IC50 (nanomolar value of the pIC50), antagonism of PTH(1-34)-induced cAMP response, SGS-72 cells [2]?
Answer: 1 nM

Question: And the IC50 (nanomolar value of the pIC50), antagonism of PTHrP(1-36)-induced cAMP response, SGS-72 cells [2]?
Answer: 1 nM

Question: What about the IC50, antagonism of PTH(1-34) (0.3 nM)-induced cAMP response, SGS-72 cells [2] of the same binder?
Answer: 1.45 nM

Question: What about the IC50, antagonism of PTHrP(1-36) (0.3 nM)-induced cAMP response, SGS-72 cells [2] of the same binder?
Answer: 1.21 nM

Question: What about the pIC50, antagonism of PTH(1-34) (0.3 nM)-induced cAMP response, SGS-72 cells [2] of the same binder?
Answer: 8.84 -log M

Question: What about the pIC50, antagonism of PTH(1-34)-induced cAMP response (GloSensor), GP-2.3 cells [2] of the same binder?
Answer: 7 -log M

Question: What about the pIC50, antagonism of PTH(1-34)-induced cAMP response, SGS-72 cells [2] of the same binder?
Answer: 9.11 -log M

Question: What about the pIC50, antagonism of PTHrP(1-36) (0.3 nM)-induced cAMP response, SGS-72 cells [2] of the same binder?
Answer: 8.92 -log M

Question: What about the pIC50, antagonism of PTHrP(1-36)-induced cAMP response, SGS-72 cells [2] of the same binder?
Answer: 9.1 -log M

Question: What about the washout assay: inhibition of the cAMP response to agonist applied after antagonist pre-treatment and rinsing [2] of the same binder?
Answer: > 90%

Question: And the IC50 [3]?
Answer: 22.3 nM

Question: And the pIC50 [3]?
Answer: 7.65 -log M

Question: And the IC50 [4]?
Answer: 17.7 nM

Question: And the pIC50 [4]?
Answer: 7.75 -log M

Question: Which Reduction of basal cAMP, % vehicle; After ligand washout; GHR-10 cells (hPTHR1-H223R (human) [5]) does the source give for IQLMHQRAKWIQDARRRAFLHKLIAEIHTAEI-NH2 [LA-PTH(5-36)-2012] here?
Answer: -49 % vehicle

Question: And the Reduction of basal cAMP, % vehicle; Ligand @ -6M; GHR-10 cells (hPTHR1-H223R (human) [5])?
Answer: -15 % vehicle

Question: How did the IC50 (nanomolar value of the pIC50), antagonism of PTH(1-34)-induced cAMP response, GP-2.3 cells [2] turn out when FMHNLWKHLSSMERVEWLRKKLQDVHNY (modifications not checked) [dW12, Y34-bPTH(7-34)-1894] was run?
Answer: 377 nM

Question: And the IC50 (nanomolar value of the pIC50), antagonism of PTH(1-34)-induced cAMP response, SGS-72 cells [2]?
Answer: 5 nM

Question: And the IC50 (nanomolar value of the pIC50), antagonism of PTHrP(1-36)-induced cAMP response, SGS-72 cells [2]?
Answer: 5 nM

Question: And the IC50, antagonism of PTH(1-34) (0.3 nM)-induced cAMP response, SGS-72 cells [2]?
Answer: 14.5 nM

Question: And the pIC50, antagonism of PTH(1-34) (0.3 nM)-induced cAMP response, SGS-72 cells [2]?
Answer: 7.84 -log M

Question: And the pIC50, antagonism of PTH(1-34)-induced cAMP response (GloSensor), GP-2.3 cells [2]?
Answer: 6.42 -log M

Question: What about the pIC50, antagonism of PTH(1-34)-induced cAMP response, SGS-72 cells [2] of the same binder?
Answer: 8.31 -log M

Question: What about the pIC50, antagonism of PTHrP(1-36)-induced cAMP response, SGS-72 cells [2] of the same binder?
Answer: 8.33 -log M

Question: And the pIC50, inhibition of the cAMP signal induced by PTH(1-34) (0.3 nM), SGS-72 cells [2]?
Answer: 7.2 -log M

Question: And the pIC50, inhibition of the cAMP signal induced by PTH(1-34) (1 nM), GP-2.3 cells [2]?
Answer: 6.4 -log M

Question: What about the IC50 [3] of the same binder?
Answer: 28.6 nM

Question: And the pIC50 [3]?
Answer: 7.54 -log M

Question: What about the IC50 [4] of the same binder?
Answer: 35.1 nM

Question: What about the pIC50 [4] of the same binder?
Answer: 7.46 -log M
